The target in data set [1] is ISCth4 transposase (TnpA) (Clostridium thermocellum (ATCC 27405)). The data set is described as follows: AUC; sedimentation velocity, TnpA alone at 0.5-2 uM, 20 C, 50,000 RPM, 10 mM HEPES pH 7.5, 100 mM, 0.3 mM TCEP; monomer to dimer.
The target is the same in data set [2]. As to the kind of experiment: AUC; sedimentation velocity, TnpA (0.5 or 5 uM) with molar excess of TIR DNA oligonucleotides (R-TIR26 at 4:1 DNA:TnpA; R35(j6)L35 or R35r41 with increasing DNA), 20 C, 10 mM HEPES pH 7.5, 100 mM, 0.3 mM TCEP.
The target in data set [3] is T1, ISCth4 transposase (TnpA) (Clostridium thermocellum ATCC 27405, UniProt A3DBR0 1-407).
T1 sequence: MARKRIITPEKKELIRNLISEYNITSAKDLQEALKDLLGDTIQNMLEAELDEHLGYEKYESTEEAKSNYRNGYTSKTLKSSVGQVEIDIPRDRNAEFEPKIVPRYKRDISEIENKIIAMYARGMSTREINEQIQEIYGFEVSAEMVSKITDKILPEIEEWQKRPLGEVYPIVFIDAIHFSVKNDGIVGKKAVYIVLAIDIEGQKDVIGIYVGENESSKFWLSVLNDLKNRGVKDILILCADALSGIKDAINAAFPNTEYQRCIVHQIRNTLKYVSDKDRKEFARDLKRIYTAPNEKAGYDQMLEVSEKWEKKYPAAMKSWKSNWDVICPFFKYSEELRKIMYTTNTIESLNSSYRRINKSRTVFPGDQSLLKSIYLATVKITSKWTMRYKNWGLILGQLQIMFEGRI
The data set is described as follows: SV AUC; 5 uM TnpA; ~7.9 S, plus ~12 S at DNA:TnpA 0.25:1; SEC: 10 mM HEPES pH 7.5, 100 mM NaCl, 0.3 mM TCEP, 4 C. Crystals: PCC 25 mM HEPES pH 7.5, 150 mM NaCl, 2 mM TCEP, 20 C; PRC/STC1 10 mM HEPES pH 7.5, 100 mM NaCl. The note with it: protein: recombinant; tags: Trx-His-TEV fusion removed by TEV; chain copies: 2; blunt.

Data set [4] addresses T1, ISCth4 transposase (TnpA). As to the kind of experiment: X-ray crystallography; PCC; TnpA dimer on one DNA, no metal in active site; 3.5 A native; SEC: 10 mM HEPES pH 7.5, 100 mM NaCl, 0.3 mM TCEP, 4 C. Crystals: PCC 25 mM HEPES pH 7.5, 150 mM NaCl, 2 mM TCEP, 20 C; PRC/STC1 10 mM HEPES pH 7.5, 100 mM NaCl. To be noted: protein: recombinant; tags: Trx-His-TEV fusion removed by TEV; chain copies: 2; blunt.

Data set [5] has as its target T1, ISCth4 transposase (TnpA). As to the kind of experiment: SV AUC; 5 uM TnpA; 7.9 S, 138 kDa dimer:1 DNA, plus ~12 S at DNA:TnpA 0.25:1; SEC: 10 mM HEPES pH 7.5, 100 mM NaCl, 0.3 mM TCEP, 4 C. Crystals: PCC 25 mM HEPES pH 7.5, 150 mM NaCl, 2 mM TCEP, 20 C; PRC/STC1 10 mM HEPES pH 7.5, 100 mM NaCl. To be noted: protein: recombinant; tags: Trx-His-TEV fusion removed by TEV; chain copies: 2; label: 5'FAM on strand 1 in the labeled version; blunt.

Data set [6] concerns the target T1, ISCth4 transposase (TnpA). The data set is described as follows: SEC; 40 uM TnpA; ~450 kDa, octamer with 4 TIRs; behaves like R-TIR; SEC: 10 mM HEPES pH 7.5, 100 mM NaCl, 0.3 mM TCEP, 4 C. Crystals: PCC 25 mM HEPES pH 7.5, 150 mM NaCl, 2 mM TCEP, 20 C; PRC/STC1 10 mM HEPES pH 7.5, 100 mM NaCl. To be noted: protein: recombinant; tags: Trx-His-TEV fusion removed by TEV; chain copies: 2; blunt. (In gel filtration, larger molecules generally elute earlier.)

The target of data set [7] is T1, ISCth4 transposase (TnpA). The data set is described as follows: X-ray crystallography; STC1; TnpA dimer on one DNA; ZnCl2 in drop; SEC: 10 mM HEPES pH 7.5, 100 mM NaCl, 0.3 mM TCEP, 4 C. Crystals: PCC 25 mM HEPES pH 7.5, 150 mM NaCl, 2 mM TCEP, 20 C; PRC/STC1 10 mM HEPES pH 7.5, 100 mM NaCl. The note with it: protein: recombinant; tags: Trx-His-TEV fusion removed by TEV; chain copies: 2; 3 strands; blunt outer ends; 1-nt gap between S68 and S66.

Data set [8] has as its target T1, ISCth4 transposase (TnpA). The data set is described as follows: X-ray crystallography; PRC; TnpA dimer on one DNA; 10 mM CaCl2 in precipitant; SEC: 10 mM HEPES pH 7.5, 100 mM NaCl, 0.3 mM TCEP, 4 C. Crystals: PCC 25 mM HEPES pH 7.5, 150 mM NaCl, 2 mM TCEP, 20 C; PRC/STC1 10 mM HEPES pH 7.5, 100 mM NaCl. The note with it: protein: recombinant; tags: Trx-His-TEV fusion removed by TEV; chain copies: 2; blunt.

As to ISCth4 transposase (TnpA) (enzyme), the stoichiometry N in data set [1] and in data set [2] was 2 throughout.

B1: R35r41 (dsDNA)
DNA 1: GCACTGGATGTTTACACAAAAATATTTACACTGCCTTTTTTTACCTAGTCATCAATGCCTACGTACGTAACGTTAC
DNA 2: GTAACGTTACGTACGTAGGCATTGATGACTAGGTAAAAAAAGGCAGTGTAAATATTTTTGTGTAAACATCCAGTGC
Turning to B1, the binding result in data set [3] is on record as “binds”.

B2: R-TIR26 (dsDNA)
DNA 1: GGCAGTGTAAATATTTTTGTGTAAAC
DNA 2: GTTTACACAAAAATATTTACACTGCC
In the case of B2, the binding result in data set [4] is “binds”.

B3: R35(j6)L35 (dsDNA)
DNA 1: GCACTGGATGTTTACACAAAAATATTTACACTGCCTTTTTTGAGATTGTAAAATATTTTATGTAAACAGTGCACTG
DNA 2: CAGTGCACTGTTTACATAAAATATTTTACAATCTCAAAAAAGGCAGTGTAAATATTTTTGTGTAAACATCCAGTGC
Turning to B3, in data set [5], the binding result is reported as “binds”.

B4: L-TIR26 (dsDNA)
DNA 1: GAGATTGTAAAATATTTTATGTAAAC
DNA 2: GTTTACATAAAATATTTTACAATCTC
Turning to B4, the binding result in data set [6] is listed as “binds”.

B5: R26(j6)L15-5'rec (dsDNA)
DNA 1: GTTTACACAAAAATATTTACACTGCCGTTTTGGAGATTGTAAAATAT
DNA 2: ATATTTTACAATCTCCAAAAC
DNA 3: GCAGTGTAAATATTTTTGTGTAAAC
For B5, the binding result in data set [7] is given as “binds”.

B6: fR-TIR26 (dsDNA)
DNA 1: TTTTTGGGCAGTGTAAATATTTTTGTGTAAAC
DNA 2: GTTTACACAAAAATATTTACACTGCCCAAAAA
B6: the binding result in data set [8] was “binds”.

Values taken from PMC7780238, “Structures of ISC th4 transpososomes reveal the role of asymmetry in copy‐out/paste‐in DNA transposition”.
